Test results reported in paper PMC4890606 (Molecular cell, 2016).

T1: Mit1 C-terminal domain (1156–1417) (S. pombe, UniProt Q9P793 1156-1417)
T1 sequence (looked up): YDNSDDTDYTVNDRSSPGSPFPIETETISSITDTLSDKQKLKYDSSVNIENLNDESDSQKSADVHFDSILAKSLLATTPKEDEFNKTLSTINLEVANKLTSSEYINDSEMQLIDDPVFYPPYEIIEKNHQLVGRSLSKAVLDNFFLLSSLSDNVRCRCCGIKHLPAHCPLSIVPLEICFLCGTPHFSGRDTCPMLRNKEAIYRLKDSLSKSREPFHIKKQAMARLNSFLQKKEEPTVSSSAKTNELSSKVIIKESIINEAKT


Legend:
[1] = molecular target: the molecule itself
[2] = molecular target: T1, Mit1 C-terminal domain (1156–1417); experiment: pull-down

Binder | stoichiometry N [1] | binding result [2]
Clr3 (aa31–687) (enzyme, S. pombe, UniProt P56523 31-687, looked up) TNNKPMSGSENTLNNESHEMSQILKKSGLCYDPRMRFHATLSEVDDHPEDPRRVLRVFEAIKKAGYVSNVPSPSDVFLRIPAREATLEELLQVHSQEMYDRVTNTEKMSHEDLANLEKISDSLYYNNESAFCARLACGSAIETCTAVVTGQVKNAFAVVRPPGHHAEPHKPGGFCLFNNVSVTARSMLQRFPDKIKRVLIVDWDIHHGNGTQMAFYDDPNVLYVSLHRYENGRFYPGTNYGCAENCGEGPGLGRTVNIPWSCAGMGDGDYIYAFQRVVMPVAYEFDPDLVIVSCGFDAAAGDHIGQFLLTPAAYAHMTQMLMGLADGKVFISLEGGYNLDSISTSALAVAQSLLGIPPGRLHTTYACPQAVATINHVTKIQSQYWRCMRPKHFDANPKDAHVDRLHDVIRTYQAKKLFEDWKITNMPILRDSVSNVFNNQVLCSSNFFQKDNLLVIVHESPRVLGNGTSETNVLNLNDSLLVDPVSLYVEWAMQQDWGLIDINIPEVVTDGENAPVDILSEVKELCLYVWDNYVELSISKNIFFIGGGKAVHGLVNLASSRNVSDRVKCMVNFLGTEPLVGLKTASEEDLPTWYYRHSLVFVSSSNECWKKAKRAKRRYGRLMQSEHTETSDMMEQHYRAVTQYLLHLLQKARPTSQ | 2 | –
Clr1 region between residues 357–500 (domain or fragment, S. pombe, UniProt O74808 357-500, looked up) PFLTPDNIASSILYSTASFSRSKPDRPRLNLSLELKLMQNELNKGQLKKQFKGDLRNLADWNNLSLVSSKFPSLPITNLRPDGSFLKHRRFNEEIAYNRQTLEKAIKQLDLSPDKVIQLREQNGVAVNGRVCYPTRNKHSEISA | – | binds
